Substrate in series [1]: CC(=O)C(=O)O
The series can be described thus: purified protein, by the assay type. To be noted: pH 6.5.

Substrate in series [2]: CC(=O)C(=O)O
As to the kind of experiment: purified protein, by the assay type. The conditions noted are these: pH 6.5. The format is biochemical.

Drawing on article PMC12197871, this text covers K0.5 and kcat for three proteins.

As a reminder, the kcat is the maximal rate divided by the concentration of active sites.

B1: WT GsLDH (Geobacillus stearothermophilus) (protein)
chain: MKNNGGARVVVIGAGFVGASYVFALMNQGIADEIVLIDANESKAIGDAMDFNHGKVFAPKPVDIWHGDYDDCRDADLVVICAGANQKPGETRLDLVDKNIAIFRSIVESVMASGFQGLFLVATNPVDILTYATWKFSGLPHERVIGSGTILDTARFRFLLGEYFSVAPQNVHAYIIGEHGDTELPVWSQAYIGVMPIRKLVESKGEEAQKDLERIFVNVRDAAYQIIEKKGATYYGIAMGLARVTRAILHNENAILTVSAYLDGLYGERDVYIGVPAVINRNGIREVIEIELNDDEKNRFHHSAATLKSVLARAFTR
In the case of B1, the K0.5 in series [1] is reported as 2.8 ± 0.4 mM.

B2: Triple mutant (Geobacillus stearothermophilus; N293S/Q189L/R104C) (protein)
chain: MKNNGGARVVVIGAGFVGASYVFALMNQGIADEIVLIDANESKAIGDAMDFNHGKVFAPKPVDIWHGDYDDCRDADLVVICAGANQKPGETRLDLVDKNIAIFCSIVESVMASGFQGLFLVATNPVDILTYATWKFSGLPHERVIGSGTILDTARFRFLLGEYFSVAPQNVHAYIIGEHGDTELPVWSLAYIGVMPIRKLVESKGEEAQKDLERIFVNVRDAAYQIIEKKGATYYGIAMGLARVTRAILHNENAILTVSAYLDGLYGERDVYIGVPAVINRNGIREVIEIELSDDEKNRFHHSAATLKSVLARAFTR
For B2, in series [2], the K0.5 is listed as 0.41 ± 0.09 mM and the kcat turned out to be 57 ± 8 s⁻¹.

B3: Gln189Leu (Geobacillus stearothermophilus; Q189L) (protein)
chain: MKNNGGARVVVIGAGFVGASYVFALMNQGIADEIVLIDANESKAIGDAMDFNHGKVFAPKPVDIWHGDYDDCRDADLVVICAGANQKPGETRLDLVDKNIAIFRSIVESVMASGFQGLFLVATNPVDILTYATWKFSGLPHERVIGSGTILDTARFRFLLGEYFSVAPQNVHAYIIGEHGDTELPVWSLAYIGVMPIRKLVESKGEEAQKDLERIFVNVRDAAYQIIEKKGATYYGIAMGLARVTRAILHNENAILTVSAYLDGLYGERDVYIGVPAVINRNGIREVIEIELNDDEKNRFHHSAATLKSVLARAFTR
Regarding B3, in series [2], the K0.5 is 2.3 ± 0.2 mM and the kcat came to 73 ± 12 s⁻¹.
